Data taken from patent US20180128830A1, “DETECTION OF HUMAN CYTOMEGALOVIRUS IN BREAST CANCER” (priority 2015, published 2018).
“And” between values parts separate entries of the source, which are not always exact repeats. Equal entries are not always repeated.

Legend:
[1] = tested on: MDA-MB-231 cells; test: Standard cell counts (hemacytometer); assay type: cell-based, human; conditions: 100 ng/ml, 6-well dishes
Method: Cells were seeded into 96-well dishes at a density of 1×10^4 cell per well in complete medium with varying doses of cmvIL-10, and then cell viability measured at the indicated time points using the Cell Titer Glo Assay kit according to manufacturer's instructions (Promega). DNA synthesis was measured in cells prepared in the same way using the BrdU Cell Proliferation ELISA Kit (Roche, Basel, Switzerland). For experiments using inhibitors, cells were cultivated in 96-well dishes as above with a final concentration of 10 μM inhibitor and BrdU incorporation evaluated after 72 hrs. For cell counts, cells were seeded into 6-well plates at a density of 2×10^5 cells per well, harvested via trypsinization, and counted using a hemacytometer at the indicated time points. The TACS Annexin V-FITC Detection Kit (Trevigen, Gaithersburg, Md.) was used to stain cells harvested from 70% confluent T75 flasks that had been treated with 100 μM etoposide for 48 hrs in the presence or absence of 100 ng/ml cmvIL-10. Cells were then analyzed via flow cytometry to detect fluorescence. For viability assays, Cell Titer Glo reagent was utilized to quantify cells that had been seeded into 96-well dishes at a density of 1×10^4 cell per well in complete medium with varying doses of etoposide in the presence or absence of 100 ng/ml cmvIL-10 as indicated

[2] = tested on: MDA-MB-231 cells; test: Transcriptional profiling, Human Tumor Metastasis RT2 Profiler PCR Array; assay type: cell-based; conditions: 100 ng/mL, 5 hrs
Method: RNA was harvested from 10×10^6 MDA-MB-231 cells that were mock treated or treated with 100 ng/mL cmvIL-10 or hIL-10 for 5 hrs using the RNeasy Midi Kit and RNAse-Free DNase set (Qiagen, Valencia, Calif.). From the isolated RNA, cDNA was prepared using the RT^2 First Strand Kit (SA Biosciences, Frederick, Md.) and subsequently loaded into a 96-well breast cancer metastasis profiler PCR array (PAHS-028ZD) with system RT^2 SYBR Green Mastermix (SA Biosciences). The plates were run using the CFX96 Real-Time system cycler (BioRad, Hercules, Calif.) with the following amplification program: 95° C. for 10 min, 95° C. for […] with a slow ramp rate for 1.0 c/sec and 60° C. for 1 min. The data from three biological replicates for each treatment was analyzed by the ΔΔCT method according to manufacturer's instructions using the RT^2 profiler PCR array data analysis program located on the SABiosciences web portal and is reported as fold change relative to control.

[3] = tested on: PAI-1; test: PAI-1 ELISA on culture supernatants; assay type: cell-based, human; conditions: 10 ng/ml
Method: DuoSet ELISA kits (R&D Systems) were used to quantify uPAR, PAI-1, and MMP-3. For uPAR and PAI-1 measurement, MDA cells were seeded in triplicate in 96-well plate at 5.0×10^4 cell/mL density with complete L-15 media and treated with 10 ng/mL of either cmvIL-10 or hIL-10 for the indicated times and supernatants were collected daily. The ELISA was carried out on supernatants according to manufacturer's instructions using and following the addition of substrate and stop solution, absorbance of the plate was measured at 450 nm using a Dynex Opsys MR microplate reader. Sample concentrations were interpolated from a standard curve using linear regression analysis. For cell-associated MMP-3, MDA cells were seeded in 96-well plates and treated with cmvIL-10 as above. Cells were treated with cell lysis buffer (150 mM NaCl, 20 mM HEPES, 0.5% Triton-X-100, 1.0 mM NaOV4, 1.0 mM EDTA, 0.1% NaN3) supplemented with 1× protease inhibitors (Calbiochem, EMD Chemicals, San Diego Calif.) and were collected daily for the indicated time points. The lysates were evaluated for MMP-3 according to the manufacturer's instructions (R&D Systems).

B1: cmvIL-10 (protein)
chain: ATTTTIKNTKPQCRPEDYATRLQDLRVTFHRVKPTLQREDDYSVWLDGTVVKGCWGCSVMDWLLRRYLEIVFPAGDHVYPGLKTELHSMRSTLESIYKDMRQCPLLGCGDKSVISRLSQEAERKSDNGTRKGLSELDTLFSRLEEYLHSRK
[1]
  cell numbers: higher cell numbers than control cultures
[2]; ACTB mRNA
  Fold Change vs. Mock, ACTB: 1.0986 fold
[2]; APC mRNA
  Fold Change vs. Mock, APC: 0.9681 fold
[2]; B2M mRNA
  Fold Change vs. Mock, B2M: 0.9597 fold
[2]; BRMS1 mRNA
  Fold Change vs. Mock, BRMS1: 0.8029 fold
[2]; CCL7 mRNA
  Fold Change vs. Mock, CCL7: 0.8113 fold
[2]; CD44 mRNA
  Fold Change vs. Mock, CD44: 1.1473 fold
[2]; CD82 mRNA
  Fold Change vs. Mock, CD82: 0.6917 fold
[2]; CDH1 mRNA
  Fold Change vs. Mock, CDH1: 0.6288 fold
[2]; CDH6 mRNA
  CDH6 fold change expressed as negative fold (down-regulation): −1.23 fold
  Fold Change vs. Mock, CDH6: 0.811 fold and 0.8113 fold
[2]; CDH11 mRNA
  Fold Change vs. Mock, CDH11: 0.9033 fold
[2]; CDKN2A mRNA
  Fold Change vs. Mock, CDKN2A: 0.8113 fold
[2]; CHD4 mRNA
  Fold Change vs. Mock, CHD4: 0.8970 fold
[2]; COL4A2 mRNA
  Fold Change vs. Mock, COL4A2: 1.0929 fold
[2]; CST7 mRNA
  Fold Change vs. Mock, CST7: 0.7149 fold
[2]; CTBP1 mRNA
  Fold Change vs. Mock, CTBP1: 0.6245 fold
[2]; CTNNA1 mRNA
  Fold Change vs. Mock, CTNNA1: 0.8816 fold
[2]; CTSK mRNA
  Fold Change vs. Mock, CTSK: 0.8043 fold
[2]; CTSL1 mRNA
  Fold Change vs. Mock, CTSL1: 0.8212 fold
[2]; CXCL12 mRNA
  Fold Change vs. Mock, CXCL12: 0.8113 fold
[2]; CXCR4 mRNA
  Fold Change vs. Mock, CXCR4: 0.8084 fold
[2]; DENR mRNA
  Fold Change vs. Mock, DENR: 0.9816 fold
[2]; EPHB2 mRNA
  Fold Change vs. Mock, EPHB2: 0.6693 fold
[2]; ETV4 mRNA
  Fold Change vs. Mock, ETV4: 0.5418 fold
[2]; EWSR1 mRNA
  Fold Change vs. Mock, EWSR1: 0.9465 fold
[2]; FAT1 mRNA
  Fold Change vs. Mock, FAT1: 1.2752 fold
[2]; FGFR4 mRNA
  Fold Change vs. Mock, FGFR4: 0.5362 fold
[2]; FLT4 mRNA
  Fold Change vs. Mock, FLT4: 0.8113 fold
[2]; FN1 mRNA
  Fold Change vs. Mock, FN1: 1.1044 fold
[2]; FXYD5 mRNA
  Fold Change vs. Mock, FXYD5: 0.9400 fold
[2]; GAPDH mRNA
  Fold Change vs. Mock, GAPDH: 0.9335 fold
[2]; GNRH1 mRNA
  Fold Change vs. Mock, GNRH1: 0.9970 fold
[2]; HGF mRNA
  Fold Change vs. Mock, HGF: 0.8113 fold
[2]; HPRT1 mRNA
  Fold Change vs. Mock, HPRT1: 1.2796 fold
[2]; HPSE mRNA
  Fold Change vs. Mock, HPSE: 0.8620 fold
[2]; HRAS mRNA
  Fold Change vs. Mock, HRAS: 1.0075 fold
[2]; HTATIP2 mRNA
  Fold Change vs. Mock, HTATIP2: 0.7439 fold
[2]; IGF1 mRNA
  Fold Change vs. Mock, IGF1: 0.8635 fold
[2]; IL1B mRNA
  Fold Change vs. Mock, IL1B: 0.6266 fold
[2]; IL18 mRNA
  Fold Change vs. Mock, IL18: 0.7362 fold
[2]; ITGA7 mRNA
  Fold Change vs. Mock, ITGA7: 0.561 fold and 0.5609 fold
  ITGA7 fold change expressed as negative fold (down-regulation): −1.78 fold
[2]; ITGB3 mRNA
  Fold Change vs. Mock, ITGB3: 1.0198 fold
[2]; KISS1R mRNA
  Fold Change vs. Mock, KISS1R: 0.8113 fold
[2]; KISS1 mRNA
  Fold Change vs. Mock, KISS1: 1.1394 fold
[2]; KRAS mRNA
  Fold Change vs. Mock, KRAS: 1.0304 fold
[2]; MCAM mRNA
  Fold Change vs. Mock, MCAM: 0.768 fold and 0.7688 fold
  MCAM fold change expressed as negative fold (down-regulation): −1.32 fold
[2]; MDM2 mRNA
  Fold Change vs. Mock, MDM2: 0.9531 fold
[2]; MET mRNA
  Fold Change vs. Mock, MET: 0.9833 fold
[2]; METAP2 mRNA
  Fold Change vs. Mock, METAP2: 1.1295 fold
[2]; MGAT5 mRNA
  Fold Change vs. Mock, MGAT5: 1.1795 fold
[2]; MMP2 mRNA
  Fold Change vs. Mock, MMP2: −1.1101 fold
[2]; MMP3 mRNA
  Fold Change vs. Mock, MMP3: 2.75 fold and 2.7478 fold
[2]; MMP7 mRNA
  Fold Change vs. Mock, MMP7: 0.9416 fold
[2]; MMP9 mRNA
  Fold Change vs. Mock, MMP9: 1.0233 fold
[2]; MMP10 mRNA
  Fold Change vs. Mock, MMP10: 0.5980 fold
[2]; MMP11 mRNA
  Fold Change vs. Mock, MMP11: 0.7026 fold
[2]; MMP13 mRNA
  Fold Change vs. Mock, MMP13: 0.8127 fold
[2]; MTA1 mRNA
  Fold Change vs. Mock, MTA1: 0.7388 fold
[2]; MTSS1 mRNA
  MTSS1 fold change expressed as negative fold (down-regulation): −3.28 fold
[2]; MYC mRNA
  Fold Change vs. Mock, MYC: 0.8113 fold
[2]; MYCL1 mRNA
  Fold Change vs. Mock, MYCL1: 0.5260 fold
[2]; NF2 mRNA
  Fold Change vs. Mock, NF2: 1.0742 fold
[2]; NME1 mRNA
  Fold Change vs. Mock, NME1: 1.0358 fold
[2]; NME4 mRNA
  Fold Change vs. Mock, NME4: 0.8226 fold
[2]; NR4A3 mRNA
  Fold Change vs. Mock, NR4A3: 0.5389 fold
[2]; PLAUR (uPAR) mRNA
  Fold Change vs. Mock, PLAUR: 1.59 fold and 1.5891 fold
[2]; PNN mRNA
  Fold Change vs. Mock, PNN: 1.3088 fold
[2]; PTEN mRNA
  Fold Change vs. Mock, PTEN: 0.7809 fold
[2]; RB1 mRNA
  Fold Change vs. Mock, RB1: 0.9548 fold
[2]; RORB mRNA
  Fold Change vs. Mock, RORB: 0.6953 fold
[2]; RPLP0 mRNA
  Fold Change vs. Mock, RPLP0: 1.0376 fold
[2]; RPSA mRNA
  Fold Change vs. Mock, RPSA: 0.9631 fold
[2]; SERPINE1 (PAI-1) mRNA
  Fold Change vs. Mock, SERPINE1: 2.68 fold and 2.6818 fold
[2]; SET mRNA
  Fold Change vs. Mock, SET: 0.9664 fold
[2]; SMAD2 mRNA
  Fold Change vs. Mock, SMAD2: 0.6869 fold
[2]; SMAD4 mRNA
  Fold Change vs. Mock, SMAD4: 0.8384 fold
[2]; SRC mRNA
  Fold Change vs. Mock, SRC: 0.5297 fold
[2]; SSTR2 mRNA
  Fold Change vs. Mock, SSTR2: 0.5556 fold
[2]; SYK mRNA
  Fold Change vs. Mock, SYK: 0.8590 fold
[2]; TCF20 mRNA
  Fold Change vs. Mock, TCF20: 0.7823 fold
[2]; TGEB1 (Transforming growth factor, beta 1) mRNA
  Fold Change vs. Mock, TGEB1: 0.7173 fold
[2]; TIMP2 mRNA
  Fold Change vs. Mock, TIMP2: 0.7596 fold
[2]; TIMP3 mRNA
  Fold Change vs. Mock, TIMP3: 0.8155 fold
[2]; TIMP4 mRNA
  Fold Change vs. Mock, TIMP4: 0.7324 fold
[2]; TNFSF10 mRNA
  Fold Change vs. Mock, TNFSF10: 0.8169 fold
[2]; TP53 mRNA
  Fold Change vs. Mock, TP53: 0.6180 fold
[2]; TRPM1 mRNA
  Fold Change vs. Mock, TRPM1: 0.8113 fold
[2]; TSHR mRNA
  Fold Change vs. Mock, TSHR: 0.8113 fold
[2]; VEGFA mRNA
  Fold Change vs. Mock, VEGFA: 0.554 fold and 0.5541 fold
  VEGFA fold change expressed as negative fold (down-regulation): −1.80 fold
[3]; 12 hours
  PAI-1 protein secreted: significantly increased
[3]; after 24 hours, maintained over 72 hours
  PAI-1 production: significant increase in PAI-1 production
